From doi:10.1101/2020.07.23.218024 (bioRxiv, 2020)
Residue numbers refer to the chain shown, from its start. Numbers in names are those of the source.

Key:
15N-PEX14(16–80W) [1] = molecular target: T1, 15N-PEX14(16–80W) (human, UniProt O75381 16-80, 15N-labelled); assay: NMR titration
T1 chain: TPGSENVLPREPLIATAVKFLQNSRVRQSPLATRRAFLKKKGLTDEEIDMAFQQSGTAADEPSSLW

15N-PEX14(16–80W) [2] = molecular target: T1, 15N-PEX14(16–80W); assay: NMR titration
[3] = molecular target: microtubules / purified porcine brain tubulin (porcine); assay: ELISA
ß-tubulin(388–444) = ß-tubulin(388–444) (human, UniProt P07437 388-444); assay: ITC
[4] = molecular target: full-length His6-TEV-PEX5S (human, UniProt P50542-2 1-602); assay: ELISA

ß-tubulin(388–444), sequence (P07437 388-444): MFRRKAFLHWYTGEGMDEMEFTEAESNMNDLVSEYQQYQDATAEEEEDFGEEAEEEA

ALSENWAQEFLAAGDA [WAQEF peptide]: binds (15N-PEX14(16–80W) [1]).

For MNDLVSEYQQYQDAT [LVSEY peptide], the Kd (15N-PEX14(16–80W) [2]) was ~5 µM.

RKAFLHWYTGEGMDE [FLHWY peptide] gave a Kd (15N-PEX14(16–80W) [2]) of ~282 µM.

B1: GST-PEX14-NTD K56A (domain or fragment)
chain: MASSEQAEQPSQPSSTPGSENVLPREPLIATAVKFLQNSRVRQSPLATRRAFLKKAGLTDEEIDMAFQQSGTAADEPS
B1 showed a Kd [3] of 12.5 ± 1.3 nM.

B2: GST-PEX14-NTD K54A (domain or fragment)
chain: B1 chain with K54A, A56K
In the case of B2, the Kd [3] is reported as 3.9 ± 0.2 nM.

B3: GST-PEX14-NTD F52A/K56A (domain or fragment)
chain: B1 chain with F52A
B3 gave a Kd [3] of 89 ± 17 nM.

B4: GST-PEX14-NTD F52A (domain or fragment)
chain: TPGSENVLPREPLIATAVKFLQNSRVRQSPLATRRAALKKKGLTDEEIDMAFQQSGTAADEPSSL
In the case of B4, the Kd [3] is reported as 39 ± 7.4 nM.

B5: PEX14-NTD (as used in ITC) (domain or fragment)
chain: B4 chain with A37F
With B5 the “stoichiometry N” value (ß-tubulin(388–444)) was 2.

B6: GST-PEX14-NTD (domain or fragment)
chain: MASSEQAEQPSQPSSTPGSENVLPREPLIATAVKFLQNSRVRQSPLATRRAFLKKKGLTDEEIDMAFQQSGTAADEPSSL
Binder B6 has a Kd [4] of ~0.5 nM.

B7: His-PEX14-NTD (domain or fragment)
chain: B6 chain
B7 gave a Kd [4] of ~1.3 nM.
